Reference: patent publication EP4388012A1 (dated 2024)
Read-outs that look alike come from different tables or passages of the source.

Columns and labels:
[1] = target: T1, soluble HLA-E-VL9 complex (HLA-E*01:03 heavy chain refolded with b2M and synthetic VL9 peptide) (human)
[2] = target: T1, soluble HLA-E-VL9 complex (HLA-E*01:03 …); experiment: SPR, antibody immobilized on CM5 chip, soluble HLA-E-VL9 flowed, 1:1 model

B1: 3H4, murine HLA-E-VL9-specific IgM monoclonal antibody (antibody, V domains shown)
VH: EVQLQESGPELVKPGASVKIPCKASGYTFTDYNMDWVKQSHGKSLEWIGDINPNNGGTIYNQKFKGKATLTVDKSSSTAYMELRSLTSEDTAVYYCARPDYYGSSYGWYFDVWGTGTTVTVSS
VL: DIVITQSPSSMYASLGERVTITCKASQDINSYLSWFQQKPGKSPKTLIYRANRLVDGVPSRFSGSGSGQDYSLTISSLEYEDMGIYYCLQYDEFPLTFGAGTKLELK
notes: also called mAb 3H4; 3H4 IgM
B1 showed a Kd [1] of 8.1 µM.

B2: 3H4 as a recombinant human IgG1 (unoptimized, wild-type 3H4 on a human IgG1 backbone, 3H4 Gwt) (antibody, V domains shown)
VH: EVQLQESGPELVKPGASVKIPCKASGYTFTDYNMDWVKQSHGKSLEWIGDINPNNGGTIYNQKFKGKATLTVDKSSSTAYMELRSLTSEDTAVYYCARPDYYGSSYGWYFDVWGTGTTVTVSS
VL: DIVITQSPSSMYASLGERVTITCKASQDINSYLSWFQQKPGKSPKTLIYRANRLVDGVPSRFSGSGSGQDYSLTISSLEYEDMGIYYCLQYDEFPLTFGAGTKLELK
notes: also called 3H4 IgG; wild-type 3H4 IgG
B2 was tested, and the Kd [2] was 49.8 µM.
